Measured values reported in PMC4072508, “Genome-Wide Prediction and Validation of Peptides That Bind Human Prosurvival Bcl-2 Proteins” (PLoS Computational Biology, 2014).

T1: Bcl-w, Q92843
T1 chain: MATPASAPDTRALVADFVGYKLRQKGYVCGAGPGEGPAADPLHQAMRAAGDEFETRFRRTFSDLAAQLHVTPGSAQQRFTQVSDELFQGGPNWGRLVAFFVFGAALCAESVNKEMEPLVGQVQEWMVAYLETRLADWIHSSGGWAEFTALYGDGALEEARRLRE

T2: Bfl-1, Q16548
T2 chain: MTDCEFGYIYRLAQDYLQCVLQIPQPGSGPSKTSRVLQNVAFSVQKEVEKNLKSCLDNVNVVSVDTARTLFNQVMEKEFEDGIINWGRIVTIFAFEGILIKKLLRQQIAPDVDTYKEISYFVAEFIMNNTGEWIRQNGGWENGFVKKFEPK

T3: Mcl-1, Q07820
T3 chain: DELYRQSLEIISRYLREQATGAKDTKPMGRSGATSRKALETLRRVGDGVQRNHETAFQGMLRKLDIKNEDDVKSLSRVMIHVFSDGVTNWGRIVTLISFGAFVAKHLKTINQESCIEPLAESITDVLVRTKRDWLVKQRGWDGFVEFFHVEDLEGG

B1: MTA2 (peptide)
chain: LFRRRDISSSLNSLADSNAREFEEES
B2: FES (peptide)
chain: AIPRAEVAELLVHSGDFLVRESQGKQ
B3: CCDC68 (peptide)
chain: EQKLKQHVENLNQVAEKLEEKHSQIT
B4: NLRP1 (peptide)
chain: LKELDLSGNSLSHSAVKSLCKTLRRP
B5: INCA1 (peptide)
chain: DQEEACASRQLHSLASFSTVTARRNP
B6: MTA2 (peptide)
chain: ASEAMLFEEALEKYGKDFNDIRQDFL
B7: UBA1 (peptide)
chain: DIDEGLYSRQLYVLGHEAMKRLQTSS
B8: EXOC5 (peptide)
chain: IKEAADIIQKLHLIAQELPFDRFSEV
B9: CCNA1 (peptide)
chain: EGMRTILVDWLVEVGEEYKLRAETLY
B10: OTOF (peptide)
chain: DFMGRTFAKPLVKMADEAYCPPRFPP
B11: MCF2 (peptide)
chain: ALTVKEMAQMLQSFGTELAETELPDD

Each binder was assayed against Bcl-2, P10415 (assay: peptide SPOT array, c-Myc-tagged receptor at 1 uM or 100 nM, anti-c-Myc-Cy3).
Sequence of Bcl-2, P10415 (P10415 1-217): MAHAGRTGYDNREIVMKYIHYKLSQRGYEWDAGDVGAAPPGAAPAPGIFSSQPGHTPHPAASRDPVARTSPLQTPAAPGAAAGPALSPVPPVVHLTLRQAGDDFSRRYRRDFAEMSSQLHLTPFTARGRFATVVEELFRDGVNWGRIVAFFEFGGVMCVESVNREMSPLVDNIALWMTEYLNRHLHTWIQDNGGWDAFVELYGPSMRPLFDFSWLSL

First: B1
Second: B2
The SPOT signal as a fraction of Bim BH3's signal on the same receptor and array of the first is higher: 0.02 for the first, 0.01 for the second.

Compared with B3, B4 is higher in SPOT signal as a fraction of Bim BH3's signal on the same receptor and array: 0.01 for the first, 0.09 for the second.

Compared with B5, B6 is lower in SPOT signal as a fraction of Bim BH3's signal on the same receptor and array: 0.08 for the first, 0.01 for the second.

First: B7
Second: B8
The SPOT signal as a fraction of Bim BH3's signal on the same receptor and array of the first is higher: 0.02 for the first, 0.01 for the second.

First: B9
Second: B10
The SPOT signal as a fraction of Bim BH3's signal on the same receptor and array of the first is lower: 0.01 for the first, 0.06 for the second.

B11 gave an SPOT signal as a fraction of Bim BH3's signal on the same receptor and array of 0.01.

Each binder was assayed against Bcl-xL, Q07817 in the same assay as above.
Sequence of Bcl-xL, Q07817 (Q07817 1-209): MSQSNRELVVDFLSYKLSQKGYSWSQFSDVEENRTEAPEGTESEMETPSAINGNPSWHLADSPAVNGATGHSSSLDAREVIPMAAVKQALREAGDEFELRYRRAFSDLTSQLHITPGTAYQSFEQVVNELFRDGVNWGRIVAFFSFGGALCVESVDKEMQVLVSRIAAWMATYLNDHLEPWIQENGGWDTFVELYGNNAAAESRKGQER

Compared with B1, B2 is lower in SPOT signal as a fraction of Bim BH3's signal on the same receptor and array: 0.08 for the first, 0.03 for the second.

Going from B3 to B4, the SPOT signal as a fraction of Bim BH3's signal on the same receptor and array rises from 0.03 to 0.4.

Going from B5 to B6, the SPOT signal as a fraction of Bim BH3's signal on the same receptor and array falls from 0.12 to 0.03.

Going from B7 to B8, the SPOT signal as a fraction of Bim BH3's signal on the same receptor and array rises from 0.05 to 0.11.

First: B9
Second: B10
The SPOT signal as a fraction of Bim BH3's signal on the same receptor and array of the first is lower: 0.05 for the first, 0.26 for the second.

Work on B11 yielded an SPOT signal as a fraction of Bim BH3's signal on the same receptor and array of 0.03.

Target: T1, Bcl-w, Q92843
Test: as above

Compared with B1, B2 is lower in SPOT signal as a fraction of Bim BH3's signal on the same receptor and array: 0.04 for the first, 0.02 for the second.

Going from B3 to B4, the SPOT signal as a fraction of Bim BH3's signal on the same receptor and array rises from 0.02 to 0.41.

First: B5
Second: B6
The SPOT signal as a fraction of Bim BH3's signal on the same receptor and array of the first is higher: 0.2 for the first, 0.02 for the second.

First: B7
Second: B8
The SPOT signal as a fraction of Bim BH3's signal on the same receptor and array of the first is lower: 0.03 for the first, 0.21 for the second.

Going from B9 to B10, the SPOT signal as a fraction of Bim BH3's signal on the same receptor and array rises from 0.02 to 0.14.

In the case of B11, the SPOT signal as a fraction of Bim BH3's signal on the same receptor and array is reported as 0.02.

Target: T2, Bfl-1, Q16548
Test: as above

First: B1
Second: B2
The SPOT signal as a fraction of Bim BH3's signal on the same receptor and array of the first is higher: 0.05 for the first, 0.02 for the second.

Compared with B3, B4 is higher in SPOT signal as a fraction of Bim BH3's signal on the same receptor and array: 0.01 for the first, 0.42 for the second.

Compared with B5, B6 is lower in SPOT signal as a fraction of Bim BH3's signal on the same receptor and array: 0.35 for the first, 0.01 for the second.

First: B7
Second: B8
The SPOT signal as a fraction of Bim BH3's signal on the same receptor and array of the first is higher: 0.09 for the first, 0.03 for the second.

Compared with B9, B10 is higher in SPOT signal as a fraction of Bim BH3's signal on the same receptor and array: 0.02 for the first, 0.1 for the second.

Binder B11 has an SPOT signal as a fraction of Bim BH3's signal on the same receptor and array of 0.01.

Target: T3, Mcl-1, Q07820
Test: as above

Going from B1 to B2, the SPOT signal as a fraction of Bim BH3's signal on the same receptor and array falls from 0.04 to 0.03.

Compared with B3, B4 is higher in SPOT signal as a fraction of Bim BH3's signal on the same receptor and array: 0.02 for the first, 0.13 for the second.

Going from B5 to B6, the SPOT signal as a fraction of Bim BH3's signal on the same receptor and array falls from 0.23 to 0.03.

Going from B7 to B8, the SPOT signal as a fraction of Bim BH3's signal on the same receptor and array rises from 0.04 to 0.09.

First: B9
Second: B10
The SPOT signal as a fraction of Bim BH3's signal on the same receptor and array of the first is lower: 0.05 for the first, 0.1 for the second.

Work on B11 yielded an SPOT signal as a fraction of Bim BH3's signal on the same receptor and array of 0.03.
